From patent US20210163581A1 (ALAMAB THERAPEUTICS, published 2021)

T1: FcγRIIa (UniProt P12318 36-218, limits assumed)
T1 construct: also called FCRIIa
T1 sequence (looked up): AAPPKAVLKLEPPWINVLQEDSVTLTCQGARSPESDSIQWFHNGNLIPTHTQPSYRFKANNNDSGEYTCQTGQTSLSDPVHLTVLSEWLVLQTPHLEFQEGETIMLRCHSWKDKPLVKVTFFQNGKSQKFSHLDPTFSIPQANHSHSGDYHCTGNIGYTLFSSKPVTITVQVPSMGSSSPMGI

B1: Ab#H (antibody, human IgG4 S228P, kappa)
heavy: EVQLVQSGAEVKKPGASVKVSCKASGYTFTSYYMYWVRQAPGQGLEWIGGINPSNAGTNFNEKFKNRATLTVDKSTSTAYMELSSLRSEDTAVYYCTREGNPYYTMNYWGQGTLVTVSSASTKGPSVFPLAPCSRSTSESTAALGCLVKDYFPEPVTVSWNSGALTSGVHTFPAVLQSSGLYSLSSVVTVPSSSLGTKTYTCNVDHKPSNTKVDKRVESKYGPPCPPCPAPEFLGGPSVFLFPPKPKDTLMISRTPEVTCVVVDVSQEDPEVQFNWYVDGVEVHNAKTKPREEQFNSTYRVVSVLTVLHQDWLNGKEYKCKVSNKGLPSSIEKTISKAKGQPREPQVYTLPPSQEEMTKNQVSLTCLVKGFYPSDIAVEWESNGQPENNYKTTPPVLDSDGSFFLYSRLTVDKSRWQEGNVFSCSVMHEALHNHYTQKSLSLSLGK
light: DVVMTQSPLSLPVTIGQPASISCKSSQSLLESDGKTYLNWLQQRPGQSPRRLIYLVSKLDSGVPDRFSGSGSGTDFTLKISRVEAEDVGVYYCWQGTHFPWTFGGGTKVEIKRTVAAPSVFIFPPSDEQLKSGTASVVCLLNNFYPREAKVQWKVDNALQSGNSQESVTEQDSKDSTYSLSSTLTLSKADYEKHKVYACEVTHQGLSSPVTKSFNRGEC
notes: also called 20170920-Ab #H-02; Mab H
B2: Ab#P (antibody, human IgG4 S228P, kappa)
heavy: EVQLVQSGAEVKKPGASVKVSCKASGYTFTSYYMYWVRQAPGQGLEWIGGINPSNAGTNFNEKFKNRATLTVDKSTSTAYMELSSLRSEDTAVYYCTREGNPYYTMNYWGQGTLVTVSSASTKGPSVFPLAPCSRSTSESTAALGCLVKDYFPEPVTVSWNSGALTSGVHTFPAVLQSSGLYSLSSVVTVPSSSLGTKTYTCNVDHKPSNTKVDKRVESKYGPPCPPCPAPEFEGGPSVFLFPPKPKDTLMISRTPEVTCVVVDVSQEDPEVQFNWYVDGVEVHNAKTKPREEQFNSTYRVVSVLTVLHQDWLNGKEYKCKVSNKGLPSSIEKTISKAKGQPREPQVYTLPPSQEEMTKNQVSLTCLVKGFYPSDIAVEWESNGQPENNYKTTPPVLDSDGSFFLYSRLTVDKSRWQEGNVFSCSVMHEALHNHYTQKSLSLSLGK
light: B1 light
B3: Ab#T (antibody, human IgG4 S228P, kappa, F234A L235A)
heavy: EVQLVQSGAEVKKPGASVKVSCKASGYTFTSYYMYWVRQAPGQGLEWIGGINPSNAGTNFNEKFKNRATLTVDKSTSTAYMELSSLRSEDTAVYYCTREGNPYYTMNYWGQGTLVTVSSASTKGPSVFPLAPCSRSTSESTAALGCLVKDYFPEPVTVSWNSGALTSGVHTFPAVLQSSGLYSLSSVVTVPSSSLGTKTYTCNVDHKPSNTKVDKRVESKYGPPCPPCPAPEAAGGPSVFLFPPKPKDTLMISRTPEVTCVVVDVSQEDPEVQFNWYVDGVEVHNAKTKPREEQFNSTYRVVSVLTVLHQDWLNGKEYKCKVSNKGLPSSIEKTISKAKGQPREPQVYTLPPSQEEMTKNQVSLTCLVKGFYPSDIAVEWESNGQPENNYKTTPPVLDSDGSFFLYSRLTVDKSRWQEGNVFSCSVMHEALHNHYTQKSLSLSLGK
light: B1 light
notes: also called 20170920-Ab #T-02
B4: Ab#D (antibody, human IgG1, kappa)
heavy: not shown
light: B1 light
notes: Light chain tie is indirect; also called 20170905-Ab #D-02
B5: Ab#L (antibody, human IgG1, kappa, L234A L235A)
heavy: not shown
light: B1 light
notes: also called 20170908-Ab #L-02

How the values were obtained:
[1] = molecular target: T2, human FcRn (human, UniProt P55899 24-297; P61769 21-119); test: SPR Biacore 8K, antibody amine-coupled to CM5, FcRn as analyte, pH 6.0, steady state affinity fit
T2 construct: The b2m chain is my addition
T2 sequence (P55899 24-297 limits assumed, chain 1 of 2): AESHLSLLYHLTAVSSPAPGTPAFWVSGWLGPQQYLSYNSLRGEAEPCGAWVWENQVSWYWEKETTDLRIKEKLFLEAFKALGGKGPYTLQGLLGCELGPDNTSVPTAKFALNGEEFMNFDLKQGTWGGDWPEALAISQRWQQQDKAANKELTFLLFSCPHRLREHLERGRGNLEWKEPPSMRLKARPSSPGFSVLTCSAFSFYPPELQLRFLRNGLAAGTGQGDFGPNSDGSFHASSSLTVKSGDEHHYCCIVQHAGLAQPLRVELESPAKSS
T2 sequence (P61769 21-119 limits assumed, chain 2 of 2): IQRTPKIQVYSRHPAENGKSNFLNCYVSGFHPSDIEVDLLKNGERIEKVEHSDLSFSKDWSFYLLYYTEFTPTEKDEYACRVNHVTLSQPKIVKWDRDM
Protocol: The activator was prepared by mixing 400 mM EDC and 100 mM NHS (GE) immediately prior to injection. The CM5 sensor chip was activated for 420 s with the mixture at a flow rate of 10 μL/min. 5 μg/mL of antibodies in 10 mM NaAc (pH 5.5) were then injected to Fc2 of channel 1-8 respectively at a flow rate of 10 μL/min for 60 s. The relative Fc1 was blocked. The chip w as deactivated by 1 M ethanolamine-HCl (GE) at a flow rate of 10 μL/min for 420 s.
Analyte FcRn was injected to channel 1-8 respectively. 8 concentrations of FcRn (0, 93.75, 187.5, 375, 750, 1500, 3000 and 6000 nM) were monitored at a flow rate of 30 μL/min for an association phase of 60 s, followed by 90 s dissociation. After each cycle of interaction analysis, the sensor chip surface was regenerated with 1×PBS (pH 7.4) at a flow rate of 10 μL/min for 30 s.
Surface channels Fc1 without immobilized antibodies were used as control surface for reference subtraction. Final data of each interaction was deducted from reference channel and buffer channel data.

[2] = molecular target: T3, C1q (UniProt P02745 23-245; P02746 28-253; P02747 29-245); test: ELISA, antibody coated at 3 µg/mL, C1q titrated
T3 construct: also called Clq
T3 sequence (P02745 23-245, chain 1 of 3): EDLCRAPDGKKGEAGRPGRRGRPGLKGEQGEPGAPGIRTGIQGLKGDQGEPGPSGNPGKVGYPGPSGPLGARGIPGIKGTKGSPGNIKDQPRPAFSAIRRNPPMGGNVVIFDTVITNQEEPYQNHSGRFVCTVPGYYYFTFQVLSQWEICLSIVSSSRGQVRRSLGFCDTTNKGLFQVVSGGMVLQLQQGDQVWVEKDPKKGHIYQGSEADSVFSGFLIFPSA
T3 sequence (P02746 28-253, chain 2 of 3): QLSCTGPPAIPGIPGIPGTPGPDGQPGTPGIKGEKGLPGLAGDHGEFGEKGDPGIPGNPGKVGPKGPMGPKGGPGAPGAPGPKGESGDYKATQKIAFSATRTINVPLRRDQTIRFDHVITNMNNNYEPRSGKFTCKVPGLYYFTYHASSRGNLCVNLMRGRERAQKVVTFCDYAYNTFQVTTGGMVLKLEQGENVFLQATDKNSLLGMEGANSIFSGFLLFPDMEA
T3 sequence (P02747 29-245, chain 3 of 3): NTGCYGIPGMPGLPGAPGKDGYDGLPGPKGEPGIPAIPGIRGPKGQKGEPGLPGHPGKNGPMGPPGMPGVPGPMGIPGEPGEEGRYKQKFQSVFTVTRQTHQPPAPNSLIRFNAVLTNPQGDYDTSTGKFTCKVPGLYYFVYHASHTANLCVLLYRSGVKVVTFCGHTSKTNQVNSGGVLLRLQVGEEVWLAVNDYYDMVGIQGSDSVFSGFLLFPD
Protocol: (§1) Plates (Nunc) were coated with antibodies at 3 μg/mL overnight at 4° C. After blocking and washing, Clq was half-log titrated in blocking buffer (600, 189.75, 60.01, 18.98, 6.00, 1.90, 0.60, 0.19, 0.06 and 0.02 μg/mL) and incubated at room temperature for 2 h. The plates were then washed and subsequently incubated with secondary antibody Sheep anti-human Clq Ab-HRP for 1 h. After washing, TMB substrate was added and the interaction was stopped by 2M HCl.

[3] = molecular target: T4, CD64 (UniProt P12314 16-288); test: SPR Biacore 8K, CD64 captured by anti-His antibody, antibody as analyte, 1:1 binding fit
T4 construct: also called FCRI
T4 sequence (P12314 16-288 limits assumed): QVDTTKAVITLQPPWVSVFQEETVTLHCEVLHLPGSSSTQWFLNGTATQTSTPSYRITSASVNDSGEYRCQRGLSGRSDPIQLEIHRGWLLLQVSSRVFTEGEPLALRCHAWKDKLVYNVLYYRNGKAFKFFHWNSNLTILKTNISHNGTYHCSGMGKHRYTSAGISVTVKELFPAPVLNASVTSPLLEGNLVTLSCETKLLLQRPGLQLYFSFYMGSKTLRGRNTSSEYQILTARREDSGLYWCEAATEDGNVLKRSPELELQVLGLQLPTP
Protocol: 2 μg/mL CD64 in running buffer (1×HBS-EP+) was injected to Fc2 of channel 1-4 at a flow rate of 10 μL/min for 30 s. 6 concentrations (40, 20, 10, 5, 2.5 and 1.25 nM) of analyte 20170905-Ab #C-02, 20170905-Ab #D-02, 20170908-Ab #G-02, 20170920-Ab #H-02 and running buffer were injected orderly to Fc1-Fc2 of channel 1-4 at a flow rate of 30 μL/min for an association phase of 180, followed by 400 dissociation. Repeat 6 cycles of capturing ligand and running analyte according to analyte concentrations in ascending order. 10 mM glycine pH 1.5 as regeneration buffer was injected following every dissociation phase.
(§2) Surface channels Fc1 without capturing ligand was used as control surface for reference subtraction. Final data of each interaction w as deducted from reference channel and buffer channel data. The experimental data of 20170905-Ab #C-02, 20170905-Ab #D-02, 20170908-Ab #G-02, 20170920-Ab #H-02 binding to CD64 was fitted by 1:1 binding mode. The 10240 nM curves of analyte 20170907-Ab #K-02, 20170908-Ab #L-02, 20170915-Ab #O-02, 20170919-Ab #P-02, 20170919-Ab #S-02 and 20170920-Ab #T-02 were removed to allow a better fit.

[4] = molecular target: T5, Cx43 (peptide used in the Biacore affinity assay of Example 1); test: SPR Biacore T200, antibody and Cx43 peptide; format and peptide not given
T5 construct: also called connexin 43; PEP1 (914)

[5] = molecular target: T4, CD64; test: SPR Biacore 8K, CD64 captured by anti-His antibody, antibody as analyte, steady state affinity fit
Protocol: (§3) 2 μg/mL CD64 in running buffer (1×HBS-EP+) was injected to Fc2 of channel 1-6 at a flow rate of 10 μL/min for 30 s. […] Repeat 8 cycles of capturing ligand and running analyte according to analyte concentrations in ascending order. 10 mM glycine pH 1.5 as regeneration buffer was injected following every dissociation phase.
as §2

[6] = molecular target: T1, FcγRIIa; test: SPR Biacore 8K, receptor captured by anti-His antibody, antibody as analyte, steady state affinity fit; unit inferred
Protocol: 1 μg/mL FcγRIIa, FcγRIIb, FcγRIIIa, or FcγRIIIb in running buffer (1×HBS-EP+) was injected to Fc2 of channel 1-8 at a flow rate of 10 μL/min for 15 s. Analytes were injected to channel 1-8 respectively. A series of analyte concentrations (seeing Table 3 below) were monitored at a flow rate of 30 μL/min for an association phase of 60 s, followed by 90 s dissociation. 10 mM glycine pH 1.5 as regeneration buffer was injected following every dissociation phase.
Surface channels Fc1 without capturing ligand was used as control surface for reference subtraction. Final data of each interaction was deducted from reference channel and buffer channel data. The experimental data of antibodies binding to FcγRIIa, FcγRIIb, FcγRIIIa, and FcγRIIIb was fitted by steady state affinity mode and shown in Table 4 below.

[7] = molecular target: T3, C1q; test: ELISA, antibody coated at 3 µg/mL, C1q titrated, anti-human C1q-HRP detection
Protocol: as §1

[8] = molecular target: T4, CD64; test: SPR Biacore 8K, CD64 captured by anti-His antibody, antibody as analyte, steady state affinity fit; steady state affinity fit; no ka/kd
Protocol: as §3, §2

| Binder | Kd [1] | binding result [2] | Kd [3] | koff [3] | kon [3] | Kd [4] | Kd [5] | Kd [6] | Kd [7] | Kd [8] |
| --- | --- | --- | --- | --- | --- | --- | --- | --- | --- | --- |
| B1 | 2610 nM | no binding | 5.73 nM | 0.00318 s⁻¹ | 554000 M⁻¹ s⁻¹ | 46.5 nM |  |  |  |  |
| B2 | 2550 nM | no binding |  |  |  | 8.58 nM | 2790 nM |  |  |  |
| B3 | 2560 nM | no binding |  |  |  | 0.582 nM | 3050 nM |  |  |  |
| B4 | 2250 nM |  | 1.92 nM | 0.000925 s⁻¹ | 482000 M⁻¹ s⁻¹ | 198 nM |  | 3390 nM | 75 nM |  |
| B5 | 2600 nM |  |  |  |  | 10.1 nM |  |  |  | 1620 nM |
